Test results as given in US20140315253A1.
pKd: −log10 of the molar value.

Target: type I collagen (collagen membrane or collagen gel)
Assay: modified ELISA on type I collagen membrane (6.0 mg), Kd calculated by Matsushita's method

pKd	Substance
6.29	CBD-NGF, histidine-affinity tagged fusion protein comprising the collagen binding domain and beta-NGF mature peptide
5.82	NAT-NGF, beta-NGF mature peptide with the histidine-affinity tag (ligand)
